# Measurements: patent publication US20060141529
# T1: Cortactin isoform 2 (recombinant, purified from baculovirally infected insect cells)
# T1 chain: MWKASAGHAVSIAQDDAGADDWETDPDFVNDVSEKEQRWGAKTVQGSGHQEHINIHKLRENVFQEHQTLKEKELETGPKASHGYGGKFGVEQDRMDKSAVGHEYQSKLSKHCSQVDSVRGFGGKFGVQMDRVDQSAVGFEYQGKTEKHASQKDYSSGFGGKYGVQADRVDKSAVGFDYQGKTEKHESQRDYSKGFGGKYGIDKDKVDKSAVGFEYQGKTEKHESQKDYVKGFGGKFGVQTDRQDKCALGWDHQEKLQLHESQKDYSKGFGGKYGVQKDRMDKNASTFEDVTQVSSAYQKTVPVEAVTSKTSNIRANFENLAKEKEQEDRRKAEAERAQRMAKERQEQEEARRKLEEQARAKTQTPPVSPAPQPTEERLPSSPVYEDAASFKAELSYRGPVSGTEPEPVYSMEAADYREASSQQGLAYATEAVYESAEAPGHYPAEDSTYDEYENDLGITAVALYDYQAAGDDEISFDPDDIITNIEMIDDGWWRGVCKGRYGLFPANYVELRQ
# B1: ARG, wild type, constructed from mouse cDNA (recombinant) (protein)
# chain: MGQQVGRVGEAPGLQQPQPRGIRGSSAARPSGRRRDPAGRTADAGFNVFTQHDHFASCVEDGFEGDKTGGSSPEVLHRPFGCDAESQALNEAIRWSSKENLLGATESDPNLFVALYDFVASGDNTLSITKGEKLRVLGYNQNGEWSEVRSKNGQGWVPSNYITPVNSLEKHSWYHGPVSRSAAEYLLSSLINGSFLVRESESSPGQLSISLRYEGRVYHYRINTTTDSKVYVTAESRFSTLAELVHHHSTVADGLVTTLHYPAPKCNKPTVYGVSPIHDKWEMERTDITMKHKLGGGQYGEVYVGVWKKYSLTVAVKTFKEDTMEVEEFLKEAAVMKEIKHPNLVQLLGVCTLEPPFYIVTEYMPYGNLLDYLRECSREEVTAVVLLYMATQISSAMEYLEKKNFIHRDLAARNCLVGENHVVKVADFGLSRLMTGDTYTAHAGAKFPIKWTAPESLAYNTFSIKSDVWAFGVLLWEIATYGMSPYPGIDLSQVYDLLEKGYRMEQPEGCPPKVYELMRACWKWSPADRPSFAETHQAFETMFHDSSISEEVAEELGRTASSSSVVPYLPRLPLLPSKTRTLRKQGENKENLDGGLDAAESLASSSAPAGFIRSTQASSGSPALPRKQRDKSPSSLLEDAKETCFTRDRKGGFFSSFMKKRNAPTPPKRSSSFREMENQPHKKYELTGNFSPVASLQNADGFSVAPSQQEPNLVPAKCYGGSFAQRNLCADDDSGGGGGSGTAGGGWSGITGFFTPRLIKKTLGLRAGKPTASDDTSKPFPRSNSTSSMSSGLPEQDRMAMTLPRNCQRSKLQLERTVSTSSQPEENVDRANDMLPKKSEEGAAPARERPKAKLLPRGATALPLRAPDPAITESDSPGVGVAGVAAAPKGKERNGGTRLGVAGVPEDGEQLGWSSPAKAVAVLPTTHNHKVPVLISPTLKHTPADVQLIGTDSQGNKFKLLSEHQVTSSGDKDRPRRVKPKCAPPPPPVMRLLQHPSTCSDPEEEPTAPPAGQHTPETQEGGKKAAPGPVPSSGKPGRPVMPPPQVPLPTSSISPAKMANGTAGTKVALRKTKQAAEKISADKISKEALLECADLLSSAITEPVPNSQLVDTGHQLLDYCSGYVDSIPQTRNKFAFREAVSKLELSLQELQVSSTAAGVPGTNPVLNNLLSCVQEISDVVQR
# Target: T1, Cortactin isoform 2 (recombinant, …)
protein,measurement,value
B1,KM (steady-state in vitro kinase assay),"KM of 110 nM and 60 nM for ABL and ARG, respectively"
same,kcat (steady-state in vitro kinase assay),The kcat for ABL and ARG is 0.05 min-1
